Results: US11939397B2, “ENTPD2 antibodies, combination therapies, and methods of using the antibodies and combination therapies” (Novartis AG, priority 2018, dated 2024)

Test system: B16F10 tumor
Assay: Syngeneic B16F10 tumor model, tumor growth and tumor T cell influx
Type: in vivo, C57BL/6 mice
Experimental: B16F10 model was established in female C57BL/6 mice by subcutaneous injection of 0.5×10^6 cells into the right flank of each mouse. On day 7 once tumors reached approximately 30 mm^3, mice were randomized according to tumor volume into treatment groups (n=10 per group). Mice received treatment of either anti-mouse ENTPD2 mAb13 at a final dose 15 mg/kg, anti-PD-1 Ab (clone RMP1-14 Bio X Cell, West Lebanon, NH) i.p. at a final dose of 10 mg/kg or the combination of both treatments on days 1, 5, and 8. All doses were adjusted to individual mouse body weights.
In order to understand the impact of treatments on the tumor microenvironment, mice were euthanized on day 8 and tumors were dissociated in HyClone RPMI1640 media (GE Healthcare, Pittsburgh, PA) using gentleMacs C-tubes (Miltenyi Biotec, Auburn, CA) on the gentleMacs Octo Dissociator (Miltenyi Biotec, Auburn, CA). Approximately 2×10^6 dissociated tumor cells were blocked with rat anti-mouse CD16/CD32 Ab (Biolegend, San Diego, CA) to reduce non-specific FcyRIII/II binding and subsequently stained with the following cocktail of Abs: rat anti-mouse CD45-BUV395 (clone 30-F11) (BD Biosciences, San Jose, CA), rat anti-mouse CD8a-BUV737 (clone 53-6.7) (BD Biosciences, San Jose, CA), rat anti-mouse CD4-BV510 (clone RM4-5) (BD Bioscience, San Jose CA), anti-mouse CD69-PercPCy5.5 (clone H1-2F3) (Biolegend, San Diego, CA) and rat anti-mouse CD25-eFluor450 (clone eBio3C7) (eBioscience, San Diego, CA) at the manufacturers' recommended dilutions. All incubations and washes were performed in FACS Buffer composed of 1× HyClone Phosphate Buffered Saline (GE Healthcare, Pittsburgh, PA), 1% HyClone Fetal Bovine Serum (GE Healthcare, Pittsburgh, PA), 2 mM EDTA (ThermoFisher, Waltham MA). After staining with the cell surface antigen antibody cocktail, dissociated tumor cells were washed in FACS buffer, fixed and permeabilized using the eBioscience Foxp3/Transcription Factor Staining Buffer Kit (ThermoFisher, Waltham MA) to allow for intracellular staining with the mouse anti-mouse FOXP3-eFluor660 (clone 150D/E4) (eBioscience, San Diego, CA).

[1] = mAb13 and anti-PD-1 Ab combination, day 8

B1: mAb13: anti-mouse ENTPD2 monoclonal antibody, VH SEQ ID NO: 191, VL SEQ ID NO: 202 (antibody, V domains shown)
VH: QVQLVQSGAELKQPGQSVKISCKASGYTFTHYGMNWVKQAPGQGLKWMGWINTDTGNPTYADDFKGRFVFSLDTSVSTAYLQISNLKNEDTATYYCVRYGTLYSGYGFFFDSWGQGTLVTVSS
VL: DIMMTQSPSSLSVSAGEKATITCKSSQSLFNSNTNKNYLNWYLQKPGQSPKLLFYYASTRHTGVPDRFIGSGSGTDFTLTITSVQDEDLADYYCQQWYSYPWTFGPGTKLEIK
Question: For B1, which “tumor growth relative to No Treatment control, combination” value (mAb13 15 mg/kg in combination with anti-PD-1 Ab 10 mg/kg, days 1, 5, 8) is on record?
Answer: significant reduction in tumor growth

Question: What about the “anti-tumor efficacy, treatment alone” value (mAb13 15 mg/kg or anti-PD-1 Ab 10 mg/kg i.p. alone, days 1, 5, 8) of the same molecule?
Answer: No significant anti-tumor efficacy

Question: What about the “activated CD4 T-helper cells (CD45+ CD8− CD4+ FOXP3− CD69+ CD25+) in tumor, increase vs No Treatment” value [1] of the same molecule?
Answer: 7.0 fold

Question: What about the “activated CD8 T cells (CD45+ CD4− CD8+ CD69+ CD25+) in tumor, change vs No Treatment” value [1] of the same molecule?
Answer: 5.8 fold
